According to the RNAGym collection of RNA variant scans (doi:10.1101/gr.219683.116):

B1: mRNA-splicing (parent)
chain: AGUUGCUGCUGGGAGCUCCAGCACAGUGAAAUGGACAGAAGGGCAGAGCAA

Variants of: B1
Assay: exon inclusion enrichment index; higher = more inclusion; WT1 exon 5 minigene, HEK293

| Variant | exon inclusion enrichment index |
| --- | --- |
| AGUUGCUGCUGGGAGCUCCAGCACAGUGAAAUGGACAGCAGGGCAGAGCAA | 0.0251 |
| AGUUAGGGAUGGGAGCUCCAGCACAGUGAAAUGGACCGAAGGGCAGAGCAA | 0.00434 |
| AGUUAUAGAAGGGAGCUCCAGCACAGUGAAAUGGACAGAAGGGCAGAGCAA | 0.0444 |
| AGUUCGCGCCGGGAGCUCCAGCACAGUGAAAUGGACAGAAGGGCGAAGCAA | 6.29 |
| AGUUAUAUAUGGGAGCUCCAGUGCAGUGAAAUGGACAGAAGGGCAGAGCAA | 0.0485 |
| AGUUAUAUAUGGGAGCUCCAGUCCAGUGAAAUGGACAGAAGGGCAGAGCAA | 0.0341 |
| AGUUCUUCUCGGGAGCUCCAGCACAGUGAAAUGGACAGAAGGGCAACGCAA | 2.56 |
| AGUUGCUGCUGGGAGCUCCAGCACAGUGAAAUGGGUAGAAGGGCAGAGCAA | 0.00277 |
| AGUUGAAGAAGGGAGCUCCAGCACAGUGAAAUGGACAGAACGGCAGAGCAA | 2.07 |
| AGUUACCACCGGGAGCUCUUGCACAGUGAAAUGGACAGAAGGGCAGAGCAA | 0.734 |
| AGUUCGCGGGGGGAGCUCCAGCACAGUGAAAUGGACAGAAGGGCAGAGCAA | 0.749 |
| AGUUGAAGAAGGGAGCUCCAGCACAGUGAAAUGGACAGAAGUCCAGAGCAA | 0.532 |
| AGUUGAAGAAGGGAGCUCCAGCACAGUGAACCGGACAGAAGGGCAGAGCAA | 1.71 |
| AGUUUCUUUUGGGAGCUCCAGCACAGUGAAAUGGACGAAAGGGCAGAGCAA | 0.184 |
| AGCUGACGACGGGAGCUCCAGCACAGUGAAAUGGACAGAAGGGCAGAGCAA | 3.44 |
| AGUUUCUUUUGGAUGCUCCAGCACAGUGAAAUGGACAGAAGGGCAGAGCAA | 0.349 |
| AGUUGCUGCUGGGAGCUCCAGCACAGUGAAGUGGACAGAAGGGCAGAGCAA | 0.255 |
| AGUUGAAGAAGGGAGCUCCAGCACAGUGAAAUGAACAGAAGGGCAGAGCAA | 0.344 |
| AGUCCGCGCCGGGAGCUCCAGCACAGUGAAAUGGACAGAAGGGCAGAGCAA | 3.81 |
| AGUUUCUUUUGGGAGCUCCAGCACAGUGAAAUGGACAGAAGGUCAGAGCAA | 0.16 |
| AGUUGAAGAAGGGAGCUCAAGCACAGUGAAAUGGACAGAAGGGCAGAGCAA | 0.348 |
| AGUUACCACCGGGAGCUCCAGCACUCUGAAAUGGACAGAAGGGCAGAGCAA | 2.25 |
| AGUUUCUUUUCAGAGCUCCAGCACAGUGAAAUGGACAGAAGGGCAGAGCAA | 0.0135 |
| AGUUGACGACGGGAGCUCCAGCACAGUGAAAUGGUAAGAAGGGCAGAGCAA | 0.00835 |
| AGUUAUAUAUGCUAGCUCCAGCACAGUGAAAUGGACAGAAGGGCAGAGCAA | 0.000527 |
| AGUUAUAUAUGGGAGCUCCAGCAACGUGAAAUGGACAGAAGGGCAGAGCAA | 0.405 |

| Variant | exon inclusion enrichment index |
| --- | --- |
| AGUUCACACAGGGAGCUCCAGCUGAGUGAAAUGGACAGAAGGGCAGAGCAA | 0.159 |
| AGUUGAAGAAGGGAGCUCCAGCACCAUGAAAUGGACAGAAGGGCAGAGCAA | 1.67 |
| AGUUCUUCUCGGGAGCUCCAGCACAGUGAAAUGGACAGAAGUACAGAGCAA | 3.34 |
| AGUUCUUCUCGGGAGCUCCAGUUCAGUGAAAUGGACAGAAGGGCAGAGCAA | 1.09 |
| AGUUGACGACGGGAGCUCCAGCACUCUGAAAUGGACAGAAGGGCAGAGCAA | 3.26 |
| AGUUCUUCUCGGGAGCUCCAGGGCAGUGAAAUGGACAGAAGGGCAGAGCAA | 0.846 |
| AGUUCACACAGGGAGCUCCAGCAUAGUGAAAUGGACAGAAGGGCAGAGCAA | 0.0213 |
| AGUUGCUGCUGGGAGCUCCAGCACAGUGAACCGGACAGAAGGGCAGAGCAA | 0.643 |
| AGCAACCACCGGGAGCUCCAGCACAGUGAAAUGGACAGAAGGGCAGAGCAA | 2.12 |
| AGUUCGCGCGAGGAGCUCCAGCACAGUGAAAUGGACAGAAGGGCAGAGCAA | 2.98 |
| AGUUGAAGAAGGUUGCUCCAGCACAGUGAAAUGGACAGAAGGGCAGAGCAA | 0.534 |
| AGUUUCUUUUGGGAGCUCCAGACCAGUGAAAUGGACAGAAGGGCAGAGCAA | 0.435 |
| AGUUGAAGAAAUGAGCUCCAGCACAGUGAAAUGGACAGAAGGGCAGAGCAA | 1.67 |
| AGUUGAAGAAGGGAGCUCCAGCACAGUAUAAUGGACAGAAGGGCAGAGCAA | 0.156 |
| AGUUCACACAGGGAGCUCCAGCGAAGUGAAAUGGACAGAAGGGCAGAGCAA | 0.48 |
| AGUUGAGUAAGGGAGCUCCAGCACAGUGAAAUGGACAGAAGGGCAGAGCAA | 0.0118 |
| AGUUGAACACGGGAGCUCCAGCACAGUGAAAUGGACAGAAGGGCAGAGCAA | 1.95 |
| AGAAAUAUAUGGGAGCUCCAGCACAGUGAAAUGGACAGAAGGGCAGAGCAA | 0.0823 |
| AGUUACCACCGGGAGCUCCAGCACAGUGAAAUGGAGCGAAGGGCAGAGCAA | 0.667 |
| AGUUAGGGAUGGGAGCUCCAGCACAGUGAAAUGGACAGAAGGGUAGAGCAA | 0.000609 |
| AGUUGCUGCUGGGAUCUCCAGCACAGUGAAAUGGACAGAAGGGCAGAGCAA | 0.0812 |
| AGUUGACGACGGGAGCAACAGCACAGUGAAAUGGACAGAAGGGCAGAGCAA | 3.1 |
| AGUUCGCGCCGGGACCUCCAGCACAGUGAAAUGGACAGAAGGGCAGAGCAA | 3.44 |
| AGUGACUGCUGGGAGCUCCAGCACAGUGAAAUGGACAGAAGGGCAGAGCAA | 0.101 |
| AGUUAGGGAUGGGACCUCCAGCACAGUGAAAUGGACAGAAGGGCAGAGCAA | 0.00583 |
| AGUUCGCGCCGGGAGCUCCAGCACAGUGAAAUGGACAGAAGGGCAGGACAA | 2.55 |

| Variant | exon inclusion enrichment index |
| --- | --- |
| AGUUUCUUUUGGGAGCUCCAGCACAGUGAAAUGGACAGAAGGGCUUAGCAA | 0.0271 |
| AGUUGCUGCUGGGAGCUUCAGCACAGUGAAAUGGACAGAAGGGCAGAGCAA | 1.27 |
| AGUUGACGACGGGAGCUCCUACACAGUGAAAUGGACAGAAGGGCAGAGCAA | 2.77 |
| AGUUCACACAGGGAGCUCCAGCACAGUGAAAUGGACAGAAGGGCACCGCAA | 0.209 |
| AGUUAGGGAUGGGAGCUCCAGCACAGUGAAAUGGACAGAAGGGCGGAGCAA | 0.00308 |
| AGUUACCACCGGGAGCUCCAGCACAUUGAAAUGGACAGAAGGGCAGAGCAA | 2.46 |
| AGUUCGCGCCGGGAGCUCGAGCACAGUGAAAUGGACAGAAGGGCAGAGCAA | 3.72 |
| AGUUUCUUUGCGGAGCUCCAGCACAGUGAAAUGGACAGAAGGGCAGAGCAA | 0.742 |
| AGUUUCUUUUGGGACCUCCAGCACAGUGAAAUGGACAGAAGGGCAGAGCAA | 0.196 |
| AUUUCACACAGGGAGCUCCAGCACAGUGAAAUGGACAGAAGGGCAGAGCAA | 0.329 |
| AGUUCAAGCAGGGAGCUCCAGCACAGUGAAAUGGACAGAAGGGCAGAGCAA | 0.407 |
| AGUUACCACCGGGAGCUCCAGCACAGUGAAAUGGACACUAGGGCAGAGCAA | 0.229 |
| AGUUCACACAGGGAGCUCCAGCACAGUAAAAUGGACAGAAGGGCAGAGCAA | 0.0118 |
| ACUUGCUGCUGGGAGCUCCAGCACAGUGAAAUGGACAGAAGGGCAGAGCAA | 0.141 |
| AGUUGAAGAAGGGAGCUCCAGCACAGUGAAAUGGACAGAAGGAUAGAGCAA | 0.656 |
| AGUUACCACCGGGAGCUCCAGCACAGUGAAAUGGACAGAUCGGCAGAGCAA | 3.14 |
| AGUUCACACAGGGAGCUCCAGCACAGUGAAAUGGACAGAAGGGCAGAUCAA | 0.218 |
| AGUUCUUCUCGGGAGCUCCAGCACAGUGAAAUGGGAAGAAGGGCAGAGCAA | 1.07 |
| AGUUCUUCUCGGGAGCUCCAGCACAGUGAAAUGGGGAGAAGGGCAGAGCAA | 0.14 |
| AGUUCGCGCCGGGAGCUCCAGCACAGUGAAAUGGACAGACAGGCAGAGCAA | 1.9 |
| AGUUCUUCUCGGGAGCUCCAGCACAGUGGUAUGGACAGAAGGGCAGAGCAA | 0.538 |
| AGUUCGCGCCGGGAGCUCCAAAACAGUGAAAUGGACAGAAGGGCAGAGCAA | 1.7 |
| AGUUCGCGCCGGGAGCUCCAGCACAGUGAAAUGGACAGAUCGGCAGAGCAA | 3.11 |
| AGUUGACGACGGGAGCUCCAGCACAGUGAAAUGGACAGAACGGCAGAGCAA | 3.93 |
| AGUUAGGGAUGGGAGCUCCGCCACAGUGAAAUGGACAGAAGGGCAGAGCAA | 0.00328 |
| AGAUCGCGCCGGGAGCUCCAGCACAGUGAAAUGGACAGAAGGGCAGAGCAA | 4.21 |

| Variant | exon inclusion enrichment index |
| --- | --- |
| AGUCACUGCUGGGAGCUCCAGCACAGUGAAAUGGACAGAAGGGCAGAGCAA | 0.0447 |
| AGUCUCUGCUGGGAGCUCCAGCACAGUGAAAUGGACAGAAGGGCAGAGCAA | 0.105 |
| AGUUAUAUAUGGGAGCUCCAGCACAGUGAAAUGGACAGAAGGGUAGAGCAA | 0.00684 |
| AGUUGAAGAAGGGAGCUCCAGCACAGUGAAUCGGACAGAAGGGCAGAGCAA | 1.09 |
| AGUUGACGACGGGAGCUCCAGCACAGUGAAAUUGACAGAAGGGCAGAGCAA | 1.97 |
| AGUUGCUGCUGGGAGCUCCAGCACAGUGAAAUGGACAGGCGGGCAGAGCAA | 0.199 |
| AGUUCACACAGGGAGCUCUUGCACAGUGAAAUGGACAGAAGGGCAGAGCAA | 0.0111 |
| AGUCAAAGAAGGGAGCUCCAGCACAGUGAAAUGGACAGAAGGGCAGAGCAA | 0.662 |
| AGUUACCACCGGGAGCUCCAGCACAGUGAAAUGGACUGAAGGGCAGAGCAA | 1.97 |
| AGUUGCUGCUGGGAGCUCCAGCACAUUGAAAUGGACAGAAGGGCAGAGCAA | 0.137 |
| ACUUUCUUUUGGGAGCUCCAGCACAGUGAAAUGGACAGAAGGGCAGAGCAA | 0.122 |
| AGUUUCUUUUGGGAGCUCCAGCACAGUGAAAUGGAGAGAAGGGCAGAGCAA | 0.0708 |
| AGUUCACACAGGGAGCUCCAGCACAGUGAAAUUCACAGAAGGGCAGAGCAA | 0.00585 |
| AGUUCACACAGGGAGCUCCAGCACAGUGAAAUGGACAGAAAUGCAGAGCAA | 0.105 |
| AGUUGAAGAAGGGAGCGACAGCACAGUGAAAUGGACAGAAGGGCAGAGCAA | 0.619 |
| AGUUGCUGCUGGGAGCUCCAGCACAGUAGAAUGGACAGAAGGGCAGAGCAA | 0.0365 |
| AGUUCUUCUGUGGAGCUCCAGCACAGUGAAAUGGACAGAAGGGCAGAGCAA | 1.56 |
| AGUUGAAGAAGGGAGCUCCAGCACUUUGAAAUGGACAGAAGGGCAGAGCAA | 0.734 |
| AGUUUCUUUUGGGAGCUCCAGCACAGUGAAAAAGACAGAAGGGCAGAGCAA | 0.0443 |
| AGUUCACACAGGGAGCUCCAGCACAGUGAAAUGAACAGAAGGGCAGAGCAA | 0.0333 |
| AGUUCUAGUCGGGAGCUCCAGCACAGUGAAAUGGACAGAAGGGCAGAGCAA | 0.234 |
| AGUUAGGGAUGGGAGCUCCUCCACAGUGAAAUGGACAGAAGGGCAGAGCAA | 0.00185 |
| AGUUGACGACGGGAGCUCCAGCACAGUGUUAUGGACAGAAGGGCAGAGCAA | 1.98 |
| AGUUGAAGAAGGGAGCUCCAGCACAGUGAAAUGGACAGAAGGGCAAGGCAA | 0.249 |
